These results are taken from PMC3296483 (Biochemical Journal, 2011).

Data set [1] has as its target GluA2 ATD (Rattus norvegicus) (UniProt P19491). The following applies: cited from earlier work.
Data set [2] concerns the molecule itself. The data set is described as follows: crystal structure.

What is called Kd is the concentration at which binding is half-saturated.

Sequence of GluA2 ATD (Rattus norvegicus) (P19491 22-398): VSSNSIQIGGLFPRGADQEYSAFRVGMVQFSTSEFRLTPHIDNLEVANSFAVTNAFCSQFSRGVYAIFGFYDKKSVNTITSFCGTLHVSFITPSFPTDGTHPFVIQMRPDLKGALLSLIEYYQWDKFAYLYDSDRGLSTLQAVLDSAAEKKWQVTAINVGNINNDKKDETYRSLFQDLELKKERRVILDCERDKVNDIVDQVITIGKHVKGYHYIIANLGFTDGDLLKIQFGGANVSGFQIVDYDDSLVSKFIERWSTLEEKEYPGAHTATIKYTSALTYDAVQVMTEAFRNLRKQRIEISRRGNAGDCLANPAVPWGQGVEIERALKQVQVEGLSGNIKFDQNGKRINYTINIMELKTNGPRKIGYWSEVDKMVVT

Take GluA1 ATD (from UniProt P19490): the dissociation constant (Kd) in data set [1] was 0.4 nM.

B1: rat GluA1 amino-terminal domain (P4-A374), tags removed (domain or fragment, UniProt P19490 22-392, looked up)
chain: PNNIQIGGLFPNQQSQEHAAFRFALSQLTEPPKLLPQIDIVNISDSFEMTYRFCSQFSKGVYAIFGFYERRTVNMLTSFCGALHVCFITPSFPVDTSNQFVLQLRPELQEALISIIDHYKWQTFVYIYDADRGLSVLQRVLDTAAEKNWQVTAVNILTTTEEGYRMLFQDLEKKKERLVVVDCESERLNAILGQIVKLEKNGIGYHYILANLGFMDIDLNKFKESGANVTGFQLVNYTDTIPARIMQQWRTSDSRDHTRVDWKRPKYTSALTYDGVKVMAEAFQSLRRQRIDISRRGNAGDCLANPAVPWGQGIDIQRALQQVRFEGLTGNVQFNEKGRRTNYTLHVIEMKHDGIRKIGYWNEDDKFVPAA
Consider B1, for which, in data set [2], the binding result is given as “binds”.
